± gives the standard deviation.
Assay: protein stability index of a GFP-peptide fusion (GPS, HEK-293T) (PSI 1-6); higher = more stable
Conditions: c terminus: a fixed tail appended
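Further: 24-mer peptide tiles fused after GFP, lentivirally expressed, FACS-sorted into six equal bins by GFP/DsRed ratio, decoded by Illumina sequencing, PSI is the read-weighted mean bin number.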

Row | Sequence | protein stability index (treatment: DMSO) | protein stability index (treatment: MLN4924 1 uM, 8 h)
1 | KEKDSPFKPKLYKGDRGLPLEGSA [RBBP5] | 4.57 ± 0.34 | 4.32 ± 0.23
2 | SWVVRVQAAKLLGSMEQVSSHFLE [INTS4] | 2.47 ± 0.45 | 2.53 ± 0.43
3 | DCGTIQENWVCLSCYQVYCGRYIN [HDAC6] | 2.85 ± 1.1 | 2.39 ± 0.63
4 | QPLEVKNNSNLQRMGSSESTDSGF [CDC25A] | 5.28 ± 0.23 | 5.06 ± 0.49
5 | ERHLVEIKQKLGMNLMNELKQNFS [TPD52L1] | 3.04 ± 0.2 | 2.71 ± 0.41
6 | RAARDYKIQNHGHRVLQRLEQRRQ [FCHSD1] | 3.82 ± 0.079 | 4.07 ± 0.26
7 | VLEIEQSMNRVKNISDADVHNAMD [FEM1B] | 4.13 ± 0.14 | 4.32 ± 0.23
8 | LNGTKVAEGHKASFCLEDTECEGD [LOXL2] | 5.41 ± 0.33 | 5.59 ± 0.12
9 | LNFQIEHHLFPTMPRHNYHKVAPL [FADS1] | 1.98 ± 0.33 | 2.02 ± 0.51
10 | EQCVSFNSHVYNGRTHQWKPLYPD [ADAMTSL2] | 3.26 ± 0.25 | 3.08 ± 0.19
11 | ENSVEFEACLVAQCDALIDALNRR [TRIM9] | 2.88 ± 0.24 | 3.11 ± 0.37
12 | WTLEDEIHSPAHPEIEKADDHLQQ [ZNF649] | 5.2 ± 0.34 | 5.26 ± 0.3
13 | KRSVYIDARDEELEKDTMDNWDEK [ZC3H15] | 4.98 ± 0.31 | 4.88 ± 0.24
14 | QQEVVVAGSSLPTSSKVNATVPSN [ACBD3] | 5.12 ± 0.34 | 4.98 ± 0.23
15 | ARLKRSQSFGVASASSIKQILLEW [SMTNL2] | 2.33 ± 0.28 | 2.29 ± 0.17
16 | VPSEEPQESDQTEEHESGIEQFSE [IQUB] | 5.69 ± 0.13 | 5.57 ± 0.38
17 | VEVLVDLFLKEGACDELFSYLIEK [PRAME] | 2.55 ± 0.66 | 3.03 ± 0.58
18 | EFGYNAETQKLLCKNGETLLGAVN [ARFIP2] | 3.31 ± 0.042 | 3.29 ± 0.38
19 | ERCFRGSSYPVCVSKVVKGGSSGK [OAS1] | 3.84 ± 0.13 | 4.07 ± 0.12
20 | LANNQCMATESVDHELGRCTDSVV [EHMT1] | 4.74 ± 0.093 | 4.71 ± 0.074
21 | RYHNSHPLRERARKLSQGILIIRF [YJU2B] | 3.08 ± 0.35 | 2.67 ± 0.45
22 | SNNHHLMLEASEWATIEGLVELLQ [ZBED1] | 2.66 ± 0.14 | 2.71 ± 0.48
23 | LDVECHEKEKHVNQLQTKVAVLEQ [SASS6] | 5.03 ± 0.11 | 5.07 ± 0.21

Row | Sequence | protein stability index (treatment: DMSO) | protein stability index (treatment: MLN4924 1 uM, 8 h)
24 | RGRYRQYNSEILEEAISVVMSGKM [LCOR] | 2.54 ± 0.23 | 2.71 ± 0.29
25 | YHLEKQTALLGGPRRCHSAPPQGS [PLEKHN1] | 3.28 ± 0.036 | 3.14 ± 0.53
26 | KCASDIFQASNPYLPTRGGTTMAS [TRIM55] | 2.89 ± 0.22 | 2.86 ± 0.16
27 | PSSLSSSEGSSSSSSSSSSSSSSA [NFE2L1] | 5.51 ± 0.22 | 5.47 ± 0.12
28 | QIEYEYKLAQALHEMREQHDAQVR [LMNB1] | 3.83 ± 0.38 | 3.83 ± 0.34
29 | YVPNMLGIIPYAGIDLAVYETLKN [SLC25A25] | 2.87 ± 0.19 | 2.61 ± 0.5
30 | HVQNQVDEVIDVMQENITKVIERG [VAMP4] | 3.95 ± 0.2 | 4.13 ± 0.52
31 | DVADDFENYHKLRRSSSKCIHDHH [NETO1] | 3.85 ± 0.15 | 4.15 ± 0.11
32 | VLTDSNHVPLQRLSLLVHNVSVMH [FBXO33] | 1.96 ± 0.3 | 2.22 ± 0.28
33 | AEDAVYGRDGYDYDGYRLRVEFPR [SRSF1] | 3.37 ± 0.2 | 3.44 ± 0.37
34 | QDACQAQAREKELLELQSQQACTH [CCDC89] | 4.91 ± 0.29 | 4.9 ± 0.2
35 | EDDIRPDIKDDIYDPTYKDKEGPS [SCD] | 5.46 ± 0.39 | 5.37 ± 0.34
36 | KLSPKKTWEGFIGGFFATVVFGLL [CDS2] | 2.33 ± 0.43 | 2.01 ± 0.28
37 | TLGGELGALEALELSPPLSPASHV [FOXJ1] | 4.12 ± 0.3 | 4.26 ± 0.098
38 | NPKLPNISLDVLQPSFPEILLESH [POMT2] | 3.52 ± 0.21 | 3.84 ± 0.34
39 | SGLSFITFICYVASSASAFLTAPL [CMTM3] | 3.15 ± 0.49 | 2.96 ± 0.3
40 | RAQMIRNEYRKLHPVLHKEEKQHL [TRIM43] | 3 ± 0.37 | 3.73 ± 0.2
41 | LANACLPVRTTNKISKQFVAPADV [ZSWIM9] | 3.27 ± 0.2 | 3.5 ± 0.21
42 | MGLVETKLAIIPGGGGTQRLPRAI [AUH] | 2.99 ± 0.82 | 3.34 ± 0.35
43 | ELMAELEELEQEELNKKMTNIRLP [CHMP4C] | 3.55 ± 0.3 | 3.65 ± 0.22
44 | PNLSLASEDEEEYESGYAFLPDLL [SMG5] | 4.32 ± 0.2 | 4.47 ± 0.15
45 | CCVDVKPISQEKIESERALISQCG [DUSP5] | 3.69 ± 0.26 | 3.63 ± 0.22
46 | SCEACKAFFKRTIQGNIEYSCPAT [ESRRG] | 2.46 ± 0.25 | 2.64 ± 0.37

Row | Sequence | protein stability index (treatment: DMSO) | protein stability index (treatment: MLN4924 1 uM, 8 h)
47 | IDKEIELHRILHHKHVVQFYHYFE [PLK2] | 2.12 ± 0.29 | 2.18 ± 0.38
48 | HAPQISYTGPSSSGRFAGREWYYG [NCK2] | 2.52 ± 0.17 | 2.8 ± 0.4
49 | KKIRQVIRKYNYVAMDTEFPGVVA [CNOT7] | 2.79 ± 0.35 | 2.24 ± 0.28
50 | EFNGLKKMNPKLKTLLAIGGWNFS [CHIT1] | 2.44 ± 0.57 | 2.32 ± 0.34
51 | DEVPGSQGSQASQAPPVPGPPPGA [NR2F2] | 5.45 ± 0.23 | 5.604 ± 0.036
52 | LQKDEYRPDKALSEGDLKNAIRVH [PSD2] | 4.56 ± 0.055 | 4.58 ± 0.16
53 | SVPDVPKSMAWCENSICVGFKRDY [VPS39] | 2.91 ± 0.16 | 2.94 ± 0.25
54 | VWYVKKFGRYLEHLEVKFMNPYNA [FBXO39] | 2.66 ± 0.53 | 2.02 ± 0.45
55 | NNHESLDEELHLLIISCRKLFYFK [FBXO39] | 2.25 ± 0.32 | 2.12 ± 0.16
56 | DYSRPLHISTFINELDSGFRLLNL [TSN] | 2.11 ± 0.27 | 2.21 ± 0.088
57 | HCRENAHDKIRPISSIGQVQSYME [SPACA9] | 3.44 ± 0.22 | 3.29 ± 0.26
58 | GELQESGLALCPEVQDLLEGCELP [SMG5] | 5.17 ± 0.11 | 5.08 ± 0.22
59 | TKKGFYSLSVRHRQVKHYRIFRLP [SLA] | 2.54 ± 0.45 | 2.54 ± 0.31
60 | VCALSALPAGPLPAPLLVLCPSRA [PLEKHN1] | 2.12 ± 0.2 | 2.18 ± 0.16
61 | EQYDLATKRVRQLLDLDPEVECLK [GOLPH3] | 3.96 ± 0.28 | 3.97 ± 0.43
62 | SCSEICYTFIIVPKMLVDLLSQKK [OR10K2] | 2.91 ± 0.77 | 2.71 ± 0.79
63 | EGPKRELGVRRPGGAGKEGVRVNN [TCF25] | 4.7 ± 0.12 | 5.04 ± 0.16
64 | SAASTSFQPQPVQPQQGYIPPMAQ [ZNF207] | 4.3 ± 0.17 | 4.38 ± 0.1
65 | LGSAPLDQEPLLSIDLGTAHSAAV [NEK8] | 4.08 ± 0.22 | 4.11 ± 0.15
66 | CSQLLESSYFDSFQEAQIKRKARN [CDKL4] | 3.51 ± 0.56 | 3.528 ± 0.023
67 | QLQHEKAELEQHLEQEQEFQVNKL [CCDC6] | 5.35 ± 0.19 | 5.41 ± 0.24
68 | EHIKSLLIKNNSLPRKRQSLRSSS [INTS3] | 3.29 ± 0.17 | 3.38 ± 0.25
69 | TEQLIEAVNNGDFEAYAKICDPGL [CAMK2B] | 4.19 ± 0.22 | 4.19 ± 0.23

Row | Sequence | protein stability index (treatment: DMSO) | protein stability index (treatment: MLN4924 1 uM, 8 h)
70 | PQQAPQDDGSQDPEVLDRESRDRP [PWWP2B] | 5.63 ± 0.29 | 5.47 ± 0.14
71 | NYRIAGARLMRSNYPPPLSSAALR [C6orf223] | 3.16 ± 0.41 | 3.2 ± 0.3
72 | LLKHPNIVRLHDSISEEGFHYLVF [CAMK2D] | 2.42 ± 0.32 | 2.2 ± 0.18
73 | EELSVLEVFEGREDSILGDPKKLL [MAGEA3] | 4.38 ± 0.28 | 4.75 ± 0.23
74 | ILTSQPGKEVVKQLEEGLKDTDLA [M1AP] | 5.05 ± 0.28 | 5.17 ± 0.17
75 | CEHECVNADGSYLCQCHEGFALNP [MATN2] | 4.77 ± 0.15 | 4.8 ± 0.4
76 | LPRRPRKGSSELGFPRVAPEDEVI [RNF208] | 4.37 ± 0.23 | 4.33 ± 0.15
77 | TSLEITILTSQPGKEVVKQLEEGL [M1AP] | 2.74 ± 0.22 | 2.68 ± 0.2
78 | ELFEDIVAREYYSEADASHCIQQI [CAMK2B] | 2.8 ± 0.34 | 3.03 ± 0.25
79 | FKPKNEEPYGHLNPKWTKWLQKLC [PI4K2A] | 2.88 ± 0.58 | 2.79 ± 0.54
80 | SSLFDLSVLKLHHSLQQSEPDLRH [SERTAD1] | 3.23 ± 0.21 | 3.29 ± 0.3
81 | RRLEQRWGFGLEELYGLALRFFKE [ACBD3] | 2.53 ± 0.8 | 2.31 ± 0.63
82 | DVLRGNDETIGFEDILNDPSQSEV [POMP] | 5.13 ± 0.092 | 5.21 ± 0.17
83 | VACFLTRGDLWISWEEGMKVFEEL [CRY1] | 2.67 ± 0.71 | 2.33 ± 0.39
84 | TQHFVQENYLEYRQVPGSDPACYE [MAGEA3] | 4.26 ± 0.081 | 4.34 ± 0.12
85 | RRPEDQELESLSAIEAELEKVAHQ [CHGA] | 5.15 ± 0.09 | 5.3 ± 0.24
86 | FVNDLTVTQDGRKIYFTDSSSKWQ [APMAP] | 2.8 ± 0.46 | 2.92 ± 0.24
87 | VMAWVKYSIQERRPQLPQVLQHVR [KLHL20] | 2.41 ± 0.37 | 2.04 ± 0.34
88 | TNKFYMLDSRSTDRVLQWERIDCQ [KLHDC2] | 2.43 ± 0.36 | 2.8 ± 0.58
89 | MNSLLIGELSPEQPSFEPTKNKEL [FADS1] | 4.26 ± 0.091 | 4.8 ± 0.21

Reference: the supplement of paper PMC10567573
